Target: the molecule itself
Experiment: self-association, SDS-PAGE with and without reducing agent

| Protein | binding result |
| --- | --- |
| AVD262 fusion protein (Plasmodium yoelii MSP1.19-chicken C4 bp oligomerisation domain) (other, Runs as a disulphide-linked heptamer of about 140 kDa without reducing agent) MRSHIASIALNNLNKSGLVGEGESKKILAKMLNMDGMDLLGVDPKHVCVDTRDIPKNAGCFRDDNGTEEWRCLLGYKKGEGNTCVENNNPTCDINNGGCDPTASCQNAESTENSKKIICTCKEPTPNAYYEGVFCSSSGSKKQGDADVCGEVAYIQSVVSDCHVPTEDVKTLLEIRKLFLEIQKLKVELQGLSKEFLEHILH | binds |
| AVD259 protein (chicken C4 bp oligomerisation domain with N-terminal leader) (other, Expressed in E. coli; On a non-reducing gel, monomer to heptamer bands are seen because disulphide formation is incomplete; the heptamer is the highest species; also called recombinant AVD259 protein) MALKKHHENEISHHGSKKQGDADVCGEVAYIQSVVSDCHVPTEDVKTLLEIRKLFLEIQKLKVELQGLSKEFLEHILH | binds |

— patent publication US20090110693A1 (IMAXIO, published 2009)
